Experimental data as given in patent US20080014583.

How the values were obtained:
[1] = system: T1, COP1-interaction-defective VPmt mutant Flag-TRB3
T1 sequence: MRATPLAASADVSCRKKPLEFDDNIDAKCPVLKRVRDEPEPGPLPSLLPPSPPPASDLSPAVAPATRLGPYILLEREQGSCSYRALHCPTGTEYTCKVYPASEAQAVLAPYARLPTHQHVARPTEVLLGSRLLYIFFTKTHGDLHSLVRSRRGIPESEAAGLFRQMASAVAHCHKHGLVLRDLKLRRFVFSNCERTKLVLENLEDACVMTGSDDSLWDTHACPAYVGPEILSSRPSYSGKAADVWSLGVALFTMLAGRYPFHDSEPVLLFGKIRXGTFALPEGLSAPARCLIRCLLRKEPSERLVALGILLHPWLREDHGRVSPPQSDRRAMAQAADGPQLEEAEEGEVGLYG

Flag-tagged TRB3 = system: T2, Flag-tagged TRB3
T2 sequence: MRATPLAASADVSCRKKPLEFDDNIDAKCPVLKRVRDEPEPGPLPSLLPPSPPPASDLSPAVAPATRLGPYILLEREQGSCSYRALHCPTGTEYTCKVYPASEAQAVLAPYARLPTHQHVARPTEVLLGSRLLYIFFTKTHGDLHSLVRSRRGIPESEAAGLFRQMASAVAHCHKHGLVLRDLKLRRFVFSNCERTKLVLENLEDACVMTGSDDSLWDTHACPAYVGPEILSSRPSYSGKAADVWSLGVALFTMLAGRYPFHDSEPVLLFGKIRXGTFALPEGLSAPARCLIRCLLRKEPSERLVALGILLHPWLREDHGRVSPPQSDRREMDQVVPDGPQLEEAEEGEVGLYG

HA-tagged COP1 (Constitutive Photomorphogenic Protein 1)
degradation of TRB3 protein after removal of MG132 [1]: COP1+DET1 promoted degradation of wild-type but not VPmt TRB3 protein
ubiquitination of TRB3, MS analysis [1]: COP1 promotes ubiquitination of wild-type but not COP1-interaction defective (VPmt) TRB3 at 3 major sites
degradation of TRB3 protein after removal of MG132 (Flag-tagged TRB3): COP1+DET1 promoted degradation of wild-type but not VPmt TRB3 protein
ubiquitination of TRB3, MS analysis (Flag-tagged TRB3): COP1 promotes ubiquitination of wild-type but not COP1-interaction defective (VPmt) TRB3 at 3 major sites
